Measurements taken from patent publication US9493781B2, “Synthetic brassica-derived chloroplast transit peptides” (DOW AGROSCIENCES LLC, priority 2012, dated 2016).

Columns and labels:
Arabidopsis [1] = assay: dgt-28, dgt-32, dgt-33, dgt-3, dgt-7 transformed Arabidopsis (T1, T2, T3) response to postemergence glyphosate, % visual injury; assay type: in vivo, Arabidopsis thaliana; settings: T1 Arabidopsis
Outline: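 Transgenic T1, T2 and T3 Arabidopsis (low-copy events for T2/T3, hemizygous and homozygous in T2) sprayed postemergence with glyphosate at 105, 420, 1,680 or 3,360 g ae/ha. Visual injury scored 2 weeks after treatment as mean, SD and range. Non-transformed Columbia served as sensitive control.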

Arabidopsis [2] = assay: dgt-31, dgt-32, dgt-33 v1 transformed T1 Arabidopsis response to glyphosate, % visual injury 2 WAT; assay type: in vivo, Arabidopsis thaliana
Procedure: Selection of transformed plants. Freshly harvested T1 seed [dgt-31, dgt-32, and dgt-33 v1 gene] were allowed to dry at room temperature and shipped to Indianapolis for testing. T1 seed was sown in 26.5×51-cm germination trays (T.O. Plastics Inc., Clearwater, Minn.), each receiving a 200 mg aliquots of stratified T1 seed (˜10,000 seed) that had previously been suspended in 40 mL of 0.1% agarose solution and stored at 4° C. for 2 days to complete dormancy requirements and ensure synchronous seed germination.
Sunshine Mix LP5 (Sun Gro Horticulture Inc., Bellevue, Wash.) was covered with fine vermiculite and subirrigated with Hoagland's solution until wet, then allowed to gravity drain. Each 40 mL aliquot of stratified seed was sown evenly onto the vermiculite with a pipette and covered with humidity domes (KORD™ Products, Bramalea, Ontario, Canada) for 4-5 days. Domes were removed once plants had germinated prior to initial transformant selection using glufosinate postemergence spray (selecting for the co-transformed dsm-2 gene).
Six days after planting (DAP) and again 10 DAP, T1 plants (cotyledon and 2-4-lf stage, respectively) were sprayed with a 0.1% solution of IGNITE™ herbicide (280 g ai/L glufosinate, Bayer Crop Sciences, Kansas City, Mo.) at a spray volume of 10 mL/tray (703 L/ha) using a DeVilbiss™ compressed air spray tip to deliver an effective rate of 200 g ae/ha glufosinate per application. Survivors (plants actively growing) were identified 4-7 days after the final spraying. Surviving plants were transplanted individually into 3-inch pots prepared with potting media (Metro Mix 360™). Plants reared in the greenhouse at least 1 day prior to tissue sampling for copy number analyses.
T1 plants were sampled and copy number analysis for the dgt-31, dgt-32, and dgt-33 v1 gene were completed. T1 plants were then assigned to various rates of glyphosate so that a range of copies were among each rate. For Arabidopsis, 26.25 g ae/ha glyphosate is an effective dose to distinguish sensitive plants from ones with meaningful levels of resistance. Elevated rates were applied to determine relative levels of resistance (105, 420, 1680, or 3360 g ae/ha).
All glyphosate herbicide applications were made by track sprayer in a 187 L/ha spray volume. Glyphosate used was of the commercial Durango dimethylamine salt formulation (480 g ae/L, Dow AgroSciences, LLC).
T1 plants selected above were subsequently transplanted to individual pots and sprayed with various rates of commercial glyphosate. Table 16 compares the response of dgt-31, dgt-32, and dgt-33 v1 and control genes to impart glyphosate resistance to Arabidopsis T1 transformants. Response is presented in terms of % visual injury 2 WAT. […] An arithmetic mean and standard deviation is presented for each treatment. […]

YFP protein = assay: Western blot of infiltrated tobacco leaves (YFP expression, transit peptide processing); parameters: species or system Nicotiana benthamiana; settings: infiltrated tobacco leaf tissue
Procedure: Samples of the infiltrated tobacco plants were assayed via Western blotting. Leaf punches were collected and subjected to bead-milling. About 100-200 mg of leaf material was mixed with 2 BBs (steel balls) (Daisy; Rogers, Ark.) and […] of PBST for 3 minutes in a Kleco™ bead mill. The samples were then spun down in a centrifuge at 14,000×g at 4° C. The supernatant was removed and either analyzed directly via Western blot or immunoprecipitated. The immunoprecipitations were performed using the Pierce Direct IP Kit™ (Thermo Scientific; Rockford, Ill.) following the manufacturer's protocol. Approximately, 50 μg of anti-YFP was bound to the resin. The samples were incubated with the resin overnight at 4° C. Next, the samples were washed and eluted the following morning and prepped for analysis by combining equal volumes of 2×8M Urea sample buffer and then boiling the samples for 5 minutes. The boiled samples were run on a 4-12% SDS-Bis Tris gel in MOPS buffer for 40 minutes. The gel was then blotted using the Invitrogen iBlot™ (Life Technologies; Carlsbad, Calif.) following the manufacturer's protocol. The blotted membrane was blocked for 10 minutes using 5% non-fat dry milk in PBS-Tween solution. The membrane was probed with the primary antibody (monoclonal anti-GFP in rabbit) used at a 1:1000 dilution in the 5% non-fat dry milk in PBS-Tween solution for 1 hour. […]

[3] = system: chloroplasts of tobacco cells; assay: Tobacco transient assay: confocal microscopy of TraP-YFP localization; assay type: cell-based, Nicotiana benthamiana; settings: Agrobacterium-infiltrated tobacco leaves
Source text: The Trap8 and TraP9 chimeric chloroplast transit peptide sequences were initially tested via a transient in planta assay. Polynucleotide sequences which encode the Trap8 (SEQ ID NO:5) and TraP9 (SEQ ID NO:6) chimeric chloroplast transit peptide sequences were synthesized. A linker sequence (SEQ ID NO:7) was incorporated between the TraP sequence and the yfp coding sequence. The resulting constructs contained two plant transcription units (PTU). The first PTU was comprised of the Arabidopsis thaliana Ubiquitin 10 promoter (AtUbi10 promoter; Callis, et al., (1990) J. Biol. Chem., 265: 12486-12493), TraP-yellow fluorescent protein fusion gene (TraP-YFP; US Patent App. 2007/0298412), and Agrobacterium tumefaciens ORF 23 3′ untranslated region (AtuORF23 3′UTR; U.S. Pat. No. 5,428,147). […]
Agrobacterium-infiltrated tobacco leaves were severed from the plant, and placed into a petri-dish with water to prevent dehydration. The infiltrated tobacco leaves were observed under blue light excitation with long-pass filter glasses held in place using a Dark Reader Hand Lamp™ (Clare Chemical Research Co.; Dolores, Colo.) to identify undamaged areas of the leaf that were successfully expressing the YFP reporter proteins. […]

[4] = with TraP8 and with TraP14 / TraP24 respectively

B1: DGT-32: Streptomyces EPSP synthase enzyme (GENBANK ZP_04696613) (protein, listed as Streptomyces roseosporus)
chain: MTVIEIPGSKSVTARALFLAAAADGTTTLLRPLRSDDTEGFAEGLRNLGYAVEQEADRWRVQGRPAGPAATEADVYCRDGATTARFLPTLAAAAASGTYRFDASAQMRRRPLAPLTRALTALGVDLRHEGADGHHPLTVRAAGIEGGELTLDAGESSQYLTALLMLGPLTTKGLRIEVTELVSAPYVEITLAMMRDFGVEVEREGNTFTVPSPSSRLRSNRGGPIGGYRATTYAVEPDASTASYFFAAAALTGREVTVPGLGTGALQGDLRFVDVLREMGAEVSVGPDATTVRSTGRLRGITVNMRDISDTMPTLAAIAPYADGPVVIEDVANTRVKECDRLEACAENLRAMGITVHTGPDRIEIHPGTPKPTGIATHGDHRIVMSFAVAGLRTPGLTYDDPGCVRKTFPRFHEVFADFAHDLEGR
Glyphosate tolerance (Arabidopsis [1]): significant tolerance to glyphosate | Herbicide tolerance (Arabidopsis [2]; [4]): robust tolerance to glyphosate

B2: DGT-31 (v1): Streptomyces EPSP synthase enzyme (GENBANK YP_004922608.1) (protein)
chain: MTVIDIPGSKSVTARALFLAAAADGTTTLLRPLHSDDTEGFTEGLTRLGYAVVREPDRWHIEGRPSGPAAADAEVHCRDGATTARFLPTLAAAAASGTYRFDASAQMRRRPLAPLTEALRTLGVDLRHDGAEGHHPLTIQASGVKGGGLTLDAGESSQYLTALLMLGPLTAEGLRIEVTELVSAPYVEITLAMMRGFGVEVVREGNTFTVPPGGYRATTYAIEPDASTASYFFAAAALTGREVTVPGLGTGALQGDLRFTEVLRRMDADVRTTSDSTTVRSDGRLAGLTVNMRDISDTMPTLAAIAPYASSPVRIEDVANTRVKECDRLEACAQNLRSMGITVRTGPDWIEIHPGTPRPTEIATHGDHRIVMSFAVAGLRTPGMSYDDPGCVRKTFPRFHEEFAAFVERSSAGE
modifications: DGT-31 v3 nucleotide
Herbicide tolerance (Arabidopsis [2]; with transit peptide TraP8): improved tolerance | Herbicide tolerance (Arabidopsis [2]; with transit peptide TraP23, compared to the negative control): slight herbicide tolerance

B3: DGT-33: Streptomyces EPSP synthase enzyme (GENBANK NC_010572) (protein, listed as Streptomyces griseus)
chain: MGAVTVIDIPGSKSVTARALFLAAAADGTTTLLRPLRSDDTEGFAEGLKNLGYAVEQEADRWRVEGRPDGPAAPDADVYCRDGATTARFLPTLVAAAASGTYRFDASAQMRRRPLAPLTRALTALGVDLRHGGEEGHHPLTVRAAGIEGGDVVLDAGESSQYLTALLMLGPLTAKGLRIEVTDLVSAPYVEITLAMMRDFGVDVSREGNTFTVPSGGYRATAYAVEPDASTASYFFAAAALTGREVTVPGLGIGALQGDLRFVDVLRDMGAEVSVGPDATTVRSTGRLRGITVTMRDISDTMPTLAAIAPHADGPVRIEDVANTRVKECDRLEACAQNLRAMGITVHTGHDWIEILPGTPKPTGIATHGDHRIVMSFAVAGLLTPGLTYDDPGCVRKTFPRFHEVFADFAASPQA
Glyphosate tolerance (Arabidopsis [1]): significant tolerance to glyphosate | Herbicide tolerance (Arabidopsis [2]; [4]): robust tolerance to glyphosate

B4: TraP9: chimeric chloroplast transit peptide SEQ ID NO:4; N-terminus from Brassica rapa EPSPS CTP, C-terminus from Brassica napus (protein)
chain: MAQASRICQNPCVISNLPKSNHRKSPFSVSLKTHQPRASSWGLKKSGTMLNGSVIRPVKVTASVS
modifications: TraP9 chimeric chloroplast transit peptide
notes: N-terminus from Brassica rapa EPSPS CTP, C-terminus from Brassica napus
Processing (cleavage) of transit peptide from YFP by Western blot (YFP protein): processed | Localization of YFP fluorescence in tobacco leaf cells [3]: accumulated within the chloroplasts
